Experimental findings from patent US20040161798A1 (University of Texas, published 2004) are described below.

For experiment [1], the target named is T1, GST-KIX (mouse, UniProt P45481 378-817).
T1 construct: range 378-817; also called GSTCBP(378-817); GST fusion of CBP(378-817)
Nature of the experiment: protein retained on TentaGel beads with scrambled peptide, SDS-PAGE/Western blot.

The target in the next experiment is T2, His6Gal80 (UniProt P04387 1-435).
T2 construct: also called Gal80 protein; Gal 80 protein; not shown: N-terminal His6 tag from vector pProEX-1
T2 sequence (looked up): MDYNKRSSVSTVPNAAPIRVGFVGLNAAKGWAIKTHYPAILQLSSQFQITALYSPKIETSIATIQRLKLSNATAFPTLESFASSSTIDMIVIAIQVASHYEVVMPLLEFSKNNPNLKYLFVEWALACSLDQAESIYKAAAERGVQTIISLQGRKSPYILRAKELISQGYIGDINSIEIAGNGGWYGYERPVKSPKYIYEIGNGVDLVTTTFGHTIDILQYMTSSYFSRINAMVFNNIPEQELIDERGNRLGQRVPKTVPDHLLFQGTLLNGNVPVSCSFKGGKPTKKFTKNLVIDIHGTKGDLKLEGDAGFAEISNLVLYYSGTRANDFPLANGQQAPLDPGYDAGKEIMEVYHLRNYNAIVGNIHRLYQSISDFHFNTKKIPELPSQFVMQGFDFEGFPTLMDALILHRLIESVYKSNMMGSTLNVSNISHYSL
The experiment is described as above.

For the next experiment, the target named is maltose-binding protein (UniProt P0AEX9 27-392 = MBP). Nature of the experiment: fluorescence polarization titration in solution.
In the next experiment the target is T3, GST-Mdm2 (human, UniProt Q00987 1-188).
T3 construct: range 1-188; also called GST fused human Mdm2
T3 sequence (Q00987 1-188): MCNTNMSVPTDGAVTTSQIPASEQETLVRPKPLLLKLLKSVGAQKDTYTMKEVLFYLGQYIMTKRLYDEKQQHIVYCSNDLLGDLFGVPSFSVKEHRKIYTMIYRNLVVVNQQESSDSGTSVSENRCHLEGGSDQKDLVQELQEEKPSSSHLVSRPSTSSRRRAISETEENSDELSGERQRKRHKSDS
Nature of the experiment: protein retained on TentaGel beads with scrambled peptide, SDS-PAGE/Western blot.

The target in experiment [2] is T4, ubiquitin (Homo sapiens (Human), UniProt P0CG47 1-76, The screen used fluorescently labelled ubiquitin. The ITC and pull-down assays used unlabelled (native) ubiquitin.).
T4 construct: Unlabeled in ITC and in the pull-down assays; also called native ubiquitin
Nature of the experiment: isothermal titration calorimetry in solution. Background: In ITC the heat of successive injections is recorded.

Experiment [3] concerns the target T4, ubiquitin. Nature of the experiment: isothermal titration calorimetry in solution, against NH2-RWDRYYF.
For experiment [4], the target named is T1, GST-KIX. Nature of the experiment: dilution assay on TentaGel beads, Western blot. In general terms: A western blot detects proteins with antibodies after separation by electrophoresis.
Experiment [5] deals with T1, GST-KIX. Nature of the experiment: fluorescence polarization after adding excess unlabeled peptide. From the text: (§1) Fluorescence anisotropy measurements were taken every 30 seconds.
(§2) Complex half life of immobilized peptides and dimeric proteins. Peptide libraries are rich sources of protein-binding molecules and there exist many straightforward methods to screen such libraries. […] To test the surface-mediated avidity concept, a collection of peptides known to bind different proteins were assembled, some homodimers and some monomers.

The target of experiment [6] is T5, His6-KIX (mouse, UniProt P45481 378-817).
T5 construct: range 378-817; Monomer; also called CBP(378-817) from pRSET-CBP(378-817); not shown: N-terminal His6 tag of vector pRSET-A
T5 sequence (P45481 378-817): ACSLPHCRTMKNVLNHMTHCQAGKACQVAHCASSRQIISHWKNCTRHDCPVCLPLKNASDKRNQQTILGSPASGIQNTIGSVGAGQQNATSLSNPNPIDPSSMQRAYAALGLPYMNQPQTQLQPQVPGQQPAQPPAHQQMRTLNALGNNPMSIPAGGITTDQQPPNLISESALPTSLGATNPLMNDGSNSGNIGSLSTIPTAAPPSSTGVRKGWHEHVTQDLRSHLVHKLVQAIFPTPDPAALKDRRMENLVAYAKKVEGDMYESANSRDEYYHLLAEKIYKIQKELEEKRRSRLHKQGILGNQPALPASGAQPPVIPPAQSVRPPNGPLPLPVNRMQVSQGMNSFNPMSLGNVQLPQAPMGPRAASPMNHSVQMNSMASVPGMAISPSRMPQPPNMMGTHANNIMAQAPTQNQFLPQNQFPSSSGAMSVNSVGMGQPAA
The description is as above.
Description: as §1, §2

The target of experiment [7] is T1, GST-KIX. Nature of the experiment: fluorescence polarization titration in solution; paragraph 167 gives this value for His6-KIX and GST-KIX.
Description: (§3) Determination of solution binding constants.
as §2
For orientation: In fluorescence polarisation assays a small probe gives low polarisation when free and higher when bound to something large.

For experiment [8], the target named is T5, His6-KIX. Described as above.
Description: as §3, §2

What is called Kd is the free concentration of one partner at which half of the binding sites on the other are occupied at equilibrium, for simple one-to-one binding. High values mean lower affinity, low ones higher affinity.

No end group written: not given here.

T1 sequence (P45481 378-817): as above

On to FSASFTEVVDAGWVSPWSVE (attached to TentaGel resin in the bead assays, Scrambled control of KIXbp1) [KIXbp1scram], for which the binding result with GST-KIX [1] is on record as “no binding (tested: 300 nM)”.

B1: Gal80bpscram (peptide)
peptide: DLQRDTNKGFHEMFDWDYQN
modifications: attached to TentaGel resin in the bead assays
notes: Scrambled control of Gal80bp; also called Ga180bpscram; scrambled version of Gal80 bp
As to B1, the binding result with His6Gal80 is “no binding (tested: 300 nM)”.

B2: Mdm2bp (peptide)
peptide: PLSQETFSDLWKLLPENNV
modifications: not fully specified (N-terminus, C-terminus); also: N-terminal carboxyfluorescein only in solution titrations, attached to TentaGel resin in bead assays
notes: also called p53 derived peptide; p53-derived peptide
For B2, the binding result in the experiment with maltose-binding protein is recorded as “no binding”.
Turning to NVKWLDPNQELPSFLTSLE (attached to TentaGel resin in the bead assays, Scrambled control of Mdm2bp) [Mdm2bpscram], the binding result in the experiment with GST-Mdm2 is given as “no binding (tested: 300 nM)”.
Molecule H-WGLRALESRWDRYYF (Hit of the library NH2-X7-S-RWDRYYF) [NH2-WGLRALESRWDRYYF] returned a Kd with ubiquitin [2] of 12 µM. Besides, the “fold better in solution than the lead peptide” value in the experiment with ubiquitin [3] was ~3 fold.

B3: NH2-RWDRYYF (peptide)
peptide: H-RWDRYYF
notes: Hit of a seven residue peptide library; also called ubiquitin lead peptide; lead peptide
Molecule B3 returned a Kd with ubiquitin [2] of 33 µM.

B4: KIXbp1 (peptide)
peptide: SVPGSVSWFEFWSAVDAVET
modifications: not fully specified (N-terminus); also: N-terminal carboxyfluorescein only in solution titrations, attached to TentaGel resin in bead assays
notes: Phage display 20-mer
On to B4, for which the “half-life of the immobilized complex” value with GST-KIX [4] was > 2 h. The “half-life of the complex in solution” value with GST-KIX [5] and with His6-KIX [6] was < 10 s throughout. Moreover, the Kd with GST-KIX [7] and with His6-KIX [8] was 8 µM in each case.
